Assay results from the DeepSol protein solubility set.

Assay: soluble on expression in E. coli; label from the status in PepcDB or PDB records

Sequence | soluble on expression in E. coli
MSLDNQPLIVIYDEGAALPKDIVTELNGVAPLVLVINSNEHTRERISYFSRFGHVVDGSDIARAVSELAHLNPAGIVTFSERALRLTATLAKHLNLPFHNLETVYRLTDKYKQRVALQEAGIESIRFYLINTVSDWEQAVEQVCLPAVLKPAYGGGSIDTYLIEDPQTGKSLVEKLLSNKQVGFDGGRSLVLEEFLQGRPSLPFGDYVSVESLVVNGEIKHINVTGKMPLSPPFREYGHIWPSVLSDSEQNQIYALTSSAINVLGVNRGITHTELKLTEQGPRIIEVNGRVGGGINEMAKISLNISLLEMAARLALGKMIDEGHHHHHH | not soluble
MNGTGNTILVTGGTSGIGLGLALRLHKAGNKVIIAGRRKALLDKIVSEHPGIESVVLDVTDPHSIQHSSEALAISHPNLNVLINNAGIMHWEDLTDAKYLSTAENIVTTNLLGTIRMVYAFTPNLLKQPSATIVNVSSALAFVPLPATPTYSATKAAVHSFTQSLRVQLADSPVEVIELAPPGVRTTLLGQENDEHAMPLEAFLDEIFKLLDISPTPQELVVERAKPLRFAEANGSHGEVLKMLAGYKPPAE | not soluble
MGSDKIHHHHHHMVTSPSLKGLQAFEAAARAGSFAAAAEELSVSAAAVSQLIRTVEEQMGRKLFHRVNRKVVLTEAGVEILPRLTMAFQEIGSVSRELDGDAFRPRLVVSVPPSMAMGWLSQRLAGFVASHGAADISLRGDDDPVPFDRELIDIRLSYGPHYREHPTEDIARDAVYPVCAPGLASAIKADGGPLAGLPLIHTDWGPTGASFPSWRNWFEAEGVQPGRAAQRGLSANSSRAALDLAISGLGVTLAQGVYCAEALEDGRLVRPAARVIALRQPYCLTIPERSARRDVVAAFRDWLIEECRRAVGSPALR | not soluble
MSDITLREAQKSVDQWIKTLGIRYFNELTNMAILTEEVGEVARIIARRYGEQSEKESDKSKDLADEMADVLWVLLCLANQTGVDLTTAFHKNIEKKTVRDKERHQQNTKLHNNGSK | soluble
MRIVVTRPQRSGERTAAKLEALGHAPVLLPLFHPIHHGERATSALSDPAGAIAVTSAEALRALATCEEQLAPYLSKPLFAVGGATAEAAQETGFEQIFTASGDALGLTVLVKQHRAFLTEEEPLLYLAGRPRGSVFEEGLAAAGIPFRTVDCYEMLPSDISENTLETTLLDTTADMVLLYSSEAARAFFHHVSADKYVTALAATKFICISRNVLFLVPEIFRANAKAAEEPSEAAMFELLHHNSGTLEHHHHHH | soluble
MSFVKKTKNFFGLDGEADPYMEHSDAYYDEPRYEPAPAYSAPRYEEPIYASARPRAARPMPTHIVPVRLLTYSDAAIKVGDPFRDGDAVVFDMSDMHKGEAKRIIDFAAGLCFALRGQMRKLDGRIFALVPESASVDENDLKHAAGLIHLEHHHHHH | not soluble
MVGLLVEDTIDDQGWNRKAYEGLLNIHSNLDVDVVLEEGVNSEQKAHRRIKELVDGGVNLIFGHGHAFAEYFSTIHNQYPDVHFVSFNGEVKGENITSLHFEGYAMGYFGGMVAASMSETHKVGVIAAFPWQPEVEGFVDGAKYMNESEAFVRYVGEWTDADKALELFQELQKEQVDVFYPAGDGYHVPVVEAIKDQGDFAIGYVGDQADLGGSTILTSTVQHVDDLYVLVAKRFQEGKLESGNLYYDFQDGVVSLGEFSSVVPDEVREQITDAISTYIQTGQFPHEEER | soluble
DDEEDEGSTIARHFHELWDMANKQDVLELILEQDIQVEEPAIFSKAIINFKADLAKKTLGPRGREVLNRLMPKVFDAVFAHPDAQFGLPRVLHLLHNICTRTTYLELLDEHPAALVQLVRLCTASPMISEQLSRYPILLDELIDPQQLYNPIPLDSYRTELRDFLARIPEDDMEQQMEALRQFKQICILRIAAADIAGVLPVMKVSDHLTYLAEAIVEAVVSQAWLQVSEKYGEPTHVKDREGKGFAVIGYGKVGGWELGYNSDLDIVFMHDCPVNVYTDGKKEIDGRQFYLRLAQRIIHIFSTRTASGILYEVDTRLRPSGASGLLVSPTDAFDDYQHQDAWTWEHQALVRARMIYGDEPLAIAFHNTRHDVLCKPRDEQTLKKEVVEMREKMRDHLGGKKSGRFMIKQDVGGITDIEFLAQYLVLNYSHEKPKLTRWCDNVRIYETLIAQGVMEEDQAMQLIRAYTAMRNEIHHRNLLNLDADVVEDKFVAEREWVKQAWNQWFA | soluble
MKCTKCGKPASVKLRHYNIKLCKEHFNEFIEQRVEKAIKKFKMFGRNSKILIAVSGGKDSVSLWHMLKKLGYEVDALFIRAGKSGMVQKAQEIVEKNAELLNTKLHIVDATEYFGGLSTQEISIMLRRPVCSICGVVRRYLMNKFAYENGYDVVVTGHNLNDEASVLLGNILHWQEGYLERQWPLLPKTHEKLVPKAKPLVLNYEEDIKLYATLNEIPHLEMACPFSVGATSLVYKKILRELEEEQPGITLNFYLGFLKRKKEPKFEVEGLRECKECGYPTTAEVCSFCRLRKQVEKRKNKTPA | soluble
MESISRSPRIFLLSLGRWNSGISVCWYSPRHPRAIISDPAPRIAREHATVLFGDSHASEENNAARRRNFHNKKTSRGGNDDKQSRGNNAEKRKRRDPMTSQGPDSDEDELQEMTNKDRLKRAKRKGIDPMDPGAHGGAPVEKWSDGLRVDHVTGADVTAGGPLFQQRPYPAPGAILRKHKPQDEEDDQQFNFLKSF | not soluble
MNGIFIEDKRLGIRLPHLDKPWEDYSPNEQEAILLEWETIRGLIPDRIAELEREINKKQDELGQEADFARSCQLNADIAELASIVNDLWIWYRIVPSVSSRHGKKRVEKP | not soluble
MGSDKIHHHHHHMSRDAPIKADKDYSQILKEEFPKIDSLAQNDCNSALDQLLVLEKKTRQASDLASSKEVLAKIVDLLASRNKWDDLNEQLTLLSKKHGQLKLSIQYMIQKVMEYLKSSKSLDLNTRISVIETIRVVTENKIFVEVERARVTKDLVEIKKEEGKIDEAADILCELQVETYGSMEMSEKIQFILEQMELSILKGDYSQATVLSRKILKKTFKNPKYESLKLEYYNLLVKISLHKREYLEVAQYLQEIYQTDAIKSDEAKWKPVLSHIVYFLVLSPYGNLQNDLIHKIQNDNNLKKLESQESLVKLFTTNELMRWPIVQKTYEPVLNEDDLAFGGEANKHHWEDLQKRVIEHNLRVISEYYSRITLLRLNELLDLTESQTETYISDLVNQGIIYAKVNRPAKIVNFEKPKNSSQLLNEWSHNVDELLEHIETIGHLITKEEIMHGLQAK | not soluble
MSLTLRDVAAEAGVSPMTASNALRGKPGVKESTRAKVIAAAKKLNYRINLTASMLKSGRSNIIHVIVNEFDSPFYSKLTQALSNEIVSRGLIPFIEQTQYSPDAAEHALSSNPFSGQLFDGEILHATGLGTNVPLSKLNGGRPFVLLDACEETPTVDAVNFPNEEAERAAMQHLIDRGCRNIAIVGHRFAPRADLAHAQNAFALRLRGACGALSDAGLPYDESMVFEAGDVANGIIAGHAIAERILAARSGHGGTEFDGACCANDFAAFGVIRGLADRGLRVPQDVKVIGFDGVTSGSYTTPALSTIQVDFMQLAKFSVDMLSERIDHGADEALPPRRAIIGYQLVDRESTAEGHHHHHH | soluble
MGSDKIHHHHHHMTPYRDNTPHLARDNHLLFTELARDYCLSMPISFKEALDRAQDATGLSMRKLADKAGVSYEQLKKVRQGKSQTTNAEDALKIATAVGVSFEQFMSGEFDASPTISIAGKVGAGAQVPVFDAYEKGDGPQVECPPGIGPHGVVAVEVEGDSMEPVYSAGDLLFYSRNGHDSVPDDVIGYKCVCEDADGMGWVKQVKAGDEPGLFHLISLNPTGANMWNVRLKWAARVRLHWPAEFARKK | not soluble
MLALFYNKKLFEQAGLTKPPETWDELLEYAKIITEKTGKPGLAIYLGGFNRYVPVAVSNGAPKPWFEKPEDASWFDNPVVRETLTWYINLYRKGKVEREKKGLPPYVVAPEDVGAGWLGDAFGQQKVAMVISGNWMIPFLADQFPNFKYGEDWDIAPLPAGKNGRVTMVYTVILGINSKTKHPKEAWKFVEFILGPRGQKELVVKAGQTLPSMKGFENDP | not soluble
MGSDKIHHHHHHMELEEIVDSERNIHKTIEVLGKGGQGIVYRCLDKDVAIKVVLRDGDFIKDKESLKQYEKSVLNLSFKPIESHFPMSIPLVTLKEKQGYVMKMAEGYEPLKTFLKKPSILENEEKDGIFRINNAIQELCKDNHYMTLSLSYYSQTQGLRSRLKILTHLAKLLFRLQSKGLVYGDLNLNNVFYKDNSAFLIDADNVRYESEKALCVIFTPNYGALEISQTSKNSDTTNYNTMLSDTFSFAIITYELLNMVHPFDGNKADDSVENFIELPWIEDRKDDSNRSCGLLPFFLTRDLKNLLA | not soluble
